In patent publication US20200071711, “MODULAR CONSTRUCTION OF SYNTHETIC GENE CIRCUITS IN MAMMALIAN CELLS USING MATHEMATICAL MODELING OF CLOSED LOOP TRANSCRIPTIONAL REPRESSORS” (Tsinghua University, published 2020):

T1: TALER24 (synthetic, UniProt P14727 SEQ:1-806)
T1 chain: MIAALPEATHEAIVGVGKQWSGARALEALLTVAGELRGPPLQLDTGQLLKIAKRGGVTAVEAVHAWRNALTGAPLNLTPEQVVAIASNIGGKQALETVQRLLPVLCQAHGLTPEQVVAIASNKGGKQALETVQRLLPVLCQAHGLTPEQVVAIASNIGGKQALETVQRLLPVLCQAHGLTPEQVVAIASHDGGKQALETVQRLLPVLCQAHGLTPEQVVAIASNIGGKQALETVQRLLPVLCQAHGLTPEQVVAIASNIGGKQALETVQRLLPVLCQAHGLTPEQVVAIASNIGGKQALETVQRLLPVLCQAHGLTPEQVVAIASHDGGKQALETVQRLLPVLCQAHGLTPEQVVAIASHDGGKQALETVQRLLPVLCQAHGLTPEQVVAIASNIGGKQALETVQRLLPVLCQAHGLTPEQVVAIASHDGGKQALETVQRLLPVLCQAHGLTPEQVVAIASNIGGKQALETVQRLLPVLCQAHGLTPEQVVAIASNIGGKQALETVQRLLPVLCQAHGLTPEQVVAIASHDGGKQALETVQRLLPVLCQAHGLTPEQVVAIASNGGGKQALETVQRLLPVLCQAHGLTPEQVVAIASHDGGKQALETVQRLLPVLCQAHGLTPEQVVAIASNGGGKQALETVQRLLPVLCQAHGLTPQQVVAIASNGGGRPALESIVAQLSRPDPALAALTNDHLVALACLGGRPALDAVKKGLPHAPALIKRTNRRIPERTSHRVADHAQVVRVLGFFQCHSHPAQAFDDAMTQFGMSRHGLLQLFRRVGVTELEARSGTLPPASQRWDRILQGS

T2: TALER26 (synthetic, UniProt P14727 SEQ:263-1244)
T2 chain: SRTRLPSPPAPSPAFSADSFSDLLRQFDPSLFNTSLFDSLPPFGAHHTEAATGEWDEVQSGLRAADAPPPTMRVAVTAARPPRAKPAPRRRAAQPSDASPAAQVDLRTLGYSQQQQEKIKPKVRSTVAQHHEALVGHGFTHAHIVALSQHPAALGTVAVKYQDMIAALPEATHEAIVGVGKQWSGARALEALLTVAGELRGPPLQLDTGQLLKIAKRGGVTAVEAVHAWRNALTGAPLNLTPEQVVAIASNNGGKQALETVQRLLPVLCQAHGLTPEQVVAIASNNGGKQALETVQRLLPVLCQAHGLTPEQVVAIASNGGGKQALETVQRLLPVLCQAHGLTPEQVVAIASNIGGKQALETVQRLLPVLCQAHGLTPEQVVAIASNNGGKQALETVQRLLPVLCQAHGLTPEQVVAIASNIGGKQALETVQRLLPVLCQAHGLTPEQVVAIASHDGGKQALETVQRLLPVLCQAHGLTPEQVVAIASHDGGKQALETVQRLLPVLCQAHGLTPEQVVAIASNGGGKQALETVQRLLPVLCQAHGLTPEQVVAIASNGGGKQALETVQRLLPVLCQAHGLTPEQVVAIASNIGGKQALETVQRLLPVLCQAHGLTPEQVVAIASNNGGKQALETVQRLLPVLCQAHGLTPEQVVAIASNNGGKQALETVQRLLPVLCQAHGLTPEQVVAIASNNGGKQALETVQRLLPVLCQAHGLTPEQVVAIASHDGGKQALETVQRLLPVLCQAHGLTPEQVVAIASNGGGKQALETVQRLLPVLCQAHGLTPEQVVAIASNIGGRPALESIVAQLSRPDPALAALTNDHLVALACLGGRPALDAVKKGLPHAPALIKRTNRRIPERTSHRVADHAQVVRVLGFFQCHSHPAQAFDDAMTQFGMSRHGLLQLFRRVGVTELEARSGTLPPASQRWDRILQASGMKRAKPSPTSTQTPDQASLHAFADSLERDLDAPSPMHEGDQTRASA


How the values were obtained:
TALER10 (synthetic) = assay: cell_activity; conditions: for activity (mKate2/TagBFP): cognate 0.00
TALER9 (synthetic) = assay: cell_activity; conditions: for activity (mKate2/TagBFP): cognate 0.01
TALER5 (synthetic) = assay: cell_activity
TALER24 = molecular target: T1, TALER24; assay: cell_activity; HEK293, two sites flanking CMVmini; conditions: tags: EYFP-2A upstream, SV40 NLS
TALER26 = molecular target: T2, TALER26; assay: cell_activity; HEK293, two sites flanking CMVmini; conditions: tags: EYFP-2A upstream, SV40 NLS
[1] = HEK293, two sites flanking CMVmini

Molecule | activity (mKate2/TagBFP) (TALER10 (synthetic)) | activity (mKate2/TagBFP) (TALER9 (synthetic)) | also measured
TGCCCTCGGCCATCAGAAGGATCTT (double strand) [T16 site] | 1.66 | 3.97 | –
TACGACTCACTATA (double strand) [T1 site] | 2.51 | 5.14 | –
TCCGCCTCCCTCTC (double strand) [T29 site] | 1.19 | 2.94 | –
TACTGAATAATCAACACT (double strand) [T5 site] | – | – | binding signal (fold repression) (TALER5 (synthetic); [1]): 17.9
TATAGAACCGATCCTCCCATT (double strand) [T9 site] | 0.84 | – | binding signal (fold repression) (TALER9 (synthetic); [1]): 636
TTTATTCCCTGACA (double strand) [T35 site] | 1.03 | 2.15 | –
TACTGAATAATCAACACTGAATTCTAGGCGTGTACGGTGGGAGGCCTATATAAGCAGAGCTCGTTTAGTGAACCGTCAGATCGCCTCGAGTACTGAATAATCAACACTTACTGAATAATCAACACTTACTGAATAATCAACACT (double strand) [T5-CMVmini-T5x3] | – | – | binding signal (fold repression) (TALER5 (synthetic); HEK293, three 3' sites (15.43 with one)): 281
TACCTCATCAGGAACATGTT (double strand) [T10 site] | – | 2.54 | binding signal (fold repression) (TALER10 (synthetic); [1]): 1310
TACCCCTCTCCGCTTCT (double strand) [T14 site] | 1.46 | 4.42 | –
TGTCGTCTTCTGCACTTAT (double strand) [T21 site] | 1.06 | 2.95 | –
TATTTCGACGCTCATTCT (double strand) [T12 site] | 1.04 | 2.38 | –
TCCCGGAAGCCGATGCT (double strand) [T13 site] | 0.93 | 2.17 | –
T24 site (dsDNA) DNA 1: TAGACAAACCACAACTCTT DNA 2: AAGAGTTGTGGTTTGTCTA | – | – | binding signal (TALER24): 10.9 fold repression
T26 site (dsDNA) DNA 1: TGGTAGACCTTAGGGCTA DNA 2: TAGCCCTAAGGTCTACCA | – | – | binding signal (TALER26): 148 fold repression
